The text below walks through data of PMC9681212.

The target of this assay is Halo-HIF-1β (endogenously HaloTag-tagged HIF-1β, knock-in clone A21) (human (endogenous in 786-O)) (UniProt P27540).
Chain of Halo-HIF-1β (endogenously HaloTag-tagged HIF-1β, knock-in clone A21) (human (endogenous in 786-O)) (P27540 whole entry): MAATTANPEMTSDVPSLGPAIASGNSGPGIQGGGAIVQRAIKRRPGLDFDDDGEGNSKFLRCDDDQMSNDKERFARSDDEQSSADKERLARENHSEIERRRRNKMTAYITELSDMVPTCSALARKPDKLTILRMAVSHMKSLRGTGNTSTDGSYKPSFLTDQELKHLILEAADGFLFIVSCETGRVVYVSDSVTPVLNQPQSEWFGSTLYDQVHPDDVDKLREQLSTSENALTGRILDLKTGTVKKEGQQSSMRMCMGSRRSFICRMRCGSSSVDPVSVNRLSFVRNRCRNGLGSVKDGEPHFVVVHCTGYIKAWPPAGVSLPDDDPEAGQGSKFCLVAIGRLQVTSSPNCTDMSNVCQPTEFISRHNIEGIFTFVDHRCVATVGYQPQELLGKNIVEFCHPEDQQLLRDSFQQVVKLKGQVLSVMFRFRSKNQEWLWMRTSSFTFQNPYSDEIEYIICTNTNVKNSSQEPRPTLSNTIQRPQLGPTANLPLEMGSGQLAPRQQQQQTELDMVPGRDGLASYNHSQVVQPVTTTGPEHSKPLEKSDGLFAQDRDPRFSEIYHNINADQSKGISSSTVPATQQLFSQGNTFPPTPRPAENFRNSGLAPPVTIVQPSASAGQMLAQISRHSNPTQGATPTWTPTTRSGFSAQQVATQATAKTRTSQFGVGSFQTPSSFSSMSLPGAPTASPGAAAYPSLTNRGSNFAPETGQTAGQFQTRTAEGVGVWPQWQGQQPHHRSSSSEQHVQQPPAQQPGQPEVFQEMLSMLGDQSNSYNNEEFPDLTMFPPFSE

Chain of HIF-2α N-terminally fused with 3xFLAG tag through a short peptide linker sequence (GDGAGLIN) (Q99814 whole entry, the tested form may be a part): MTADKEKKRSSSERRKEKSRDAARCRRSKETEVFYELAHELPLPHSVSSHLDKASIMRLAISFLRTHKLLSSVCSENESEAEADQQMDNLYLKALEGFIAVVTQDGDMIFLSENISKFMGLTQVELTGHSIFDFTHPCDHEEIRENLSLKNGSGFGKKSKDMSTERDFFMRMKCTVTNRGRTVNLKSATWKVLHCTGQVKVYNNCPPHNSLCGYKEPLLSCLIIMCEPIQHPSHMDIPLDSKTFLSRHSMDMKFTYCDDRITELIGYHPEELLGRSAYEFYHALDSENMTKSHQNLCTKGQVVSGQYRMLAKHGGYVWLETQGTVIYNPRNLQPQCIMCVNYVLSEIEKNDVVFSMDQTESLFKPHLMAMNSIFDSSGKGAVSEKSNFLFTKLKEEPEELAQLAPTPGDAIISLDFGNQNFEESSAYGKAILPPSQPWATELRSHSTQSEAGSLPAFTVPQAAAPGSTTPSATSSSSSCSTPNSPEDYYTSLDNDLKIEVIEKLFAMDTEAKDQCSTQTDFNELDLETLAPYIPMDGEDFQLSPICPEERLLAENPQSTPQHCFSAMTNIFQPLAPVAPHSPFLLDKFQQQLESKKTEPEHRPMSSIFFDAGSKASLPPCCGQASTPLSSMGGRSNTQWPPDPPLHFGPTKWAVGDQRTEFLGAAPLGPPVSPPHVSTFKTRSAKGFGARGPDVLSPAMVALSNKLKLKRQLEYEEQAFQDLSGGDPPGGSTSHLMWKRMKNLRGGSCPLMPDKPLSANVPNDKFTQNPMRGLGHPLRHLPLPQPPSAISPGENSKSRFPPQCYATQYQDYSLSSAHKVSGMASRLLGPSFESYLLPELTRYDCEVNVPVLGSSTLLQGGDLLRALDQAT

“HIF-2α N-terminally fused with 3xFLAG tag through a short peptide linker sequence (GDGAGLIN) (from UniProt Q99814 1-870) (natural protein)”: the fSPT of endogenous Halo-HIF-1β in live 786-O KIN cells stably overexpressing HIF-2α: bound fraction of Halo-HIF-1β (diffusion coefficient <0.1 μm^2/s, presumably chromatin-bound) is under 50%.
